The target of test [1] is BK virus VP1 protein, genotype I (BK virus) (UniProt P03088). The test can be described thus: cell-based or functional assay.
The target is the same in test [2]. The test can be described thus: cell-based or functional assay. This is another data set of the same source.

17 molecules from patent US20250304658A1 can be followed below.

“And” between values parts separate entries of the source, which are not always exact repeats. Identical values can stand only once. Like-named read-outs stand apart in the source and are kept apart here.

B1: 7H8 (antibody, V domains shown)
VH: EVQLLESGGGLVQPGGSLRLSCAASGFAFHTYDMTWVRQAPGKGLEWVSGVVGSGINTYYADSVKGRFTISRDNSKSTLYLQMNSLRAEDTAVYYCAKDSSSWFSLHYWGQGTLVTVSS
VL: DIQMTQSPSTLSASVGDRVTITCRASQSISNWLAWYQQKPGKAPKLLIYKASSLESGVPSRFSGSGSGTDFTLTISSLQPDDFASYYCQQYRSYAYTFGQGTKLEIT
Regarding B1, the EC50, pseudovirus neutralization in test [1] amounted to 59.6 pM.

B2: 2B9 (antibody, V domains shown)
VH: EVQLLESGGGLAQPGKSLRLSCAASGFTFSGFAMSWVRQAPGKGLEWVSGISGSGDITYYADSVKGRFTISRDNSKSTLYLQMNSLGAEDTAVYYCAKDPYNWNHGVYGMDVWGQGTTVTVSS
VL: DIQMTQSPSSLSASVGDRVTITCRASQSISSYLNWYQQKPGKAPKFLIYGASSLQSGVPSRFSGSGSGTDFTLTISSLQPEDFAAYYCQQSFNAPLTFGGGTKVEIK
Molecule B2 displayed an EC50, pseudovirus neutralization in test [2] of 4.2 pM. In test [1], this molecule displayed an EC50, pseudovirus neutralization of 32.2 pM and an EC50, pseudovirus neutralization (mAb mixed with irrelevant isotype matched mAb M2) of 2.77 pM.

B3: 9G9 (antibody, V domains shown)
VH: EVQLLESGGGLVQPGGSLRLSCAASGFTFHNYAMSWVRQAPGKGLEWVSGISGSGGTAYYADSVKGRFTISRDNSKNTLYLQMNSLRADDTALYYCAKDRFLEWVEGFDSWGQGTLVTVSS
VL: DIQMTQSPSSLSASVGDRVTITCRASQSIGSFLIWYQQKPGKAPKLLIYAASSLQSGVPSRFSGSGSGTDFTLIISSLQPEDFATYYCQQSYNTPLTFGGGTKVEIK
Molecule B3 showed an EC50, pseudovirus neutralization (mAb mixed with irrelevant isotype matched mAb M2) in test [2] of 2.76 pM. This molecule came in with an EC50, pseudovirus neutralization in test [1] of 4.7 pM.

B4: 6H12 (antibody, V domains shown)
VH: EVQLVESGGGLVQPGGSLRLSCAASGFTFSSYEMNWVRQAPGKGLEWVSYISSGGSSIKYADSVRGRFAFSRDNAENSVHLQMNSLRAEDTAVYYCARVGGSYYYSYAMDVWGQGTAVTVSS
VL: DIQLTQSPSFLSASVGDRVTITCWASQDISSYLAWYQQKPGKAPKLLIYAASTLQSGVPSRFTGSGSGTEFTLTISSLQPEDFATYYCQQPHNSPFSFGPGTKVDVK
Take B4: in test [2], the EC50, pseudovirus neutralization (mAb mixed with irrelevant isotype matched mAb M2) stood at 0.96 pM. In test [1], this molecule yielded an EC50, pseudovirus neutralization of 3.9 pM.

B5: 11D12 (antibody, V domains shown)
VH: EVQLVESGGGLVQPGGSLRLSCAASGFTFSSYEMNWVRQAPGKGLEWVSYISSGGSSIKYADSVRGRFTFSRDNAENSVFLQMNSLRGEDTAVYYCARVGGSYYYSYAMDVWGQGTAVTVSS
VL: DIQLTQSPSFLSASVGDRVTITCWASQDISSYLAWYQQKPGKAPKLLIYAASTLQSGVPSRFSGSGSGTEFTLTISSLQPEDFATYYCQQPNNYPFSFGPGTKVDVK
As for B5, in test [1], the EC50, pseudovirus neutralization was 10.9 pM.

B6: 15C10 (antibody, V domains shown)
VH: EVQLLESGGGLVQPGGSLRLSCAASGFTFSSFAMSWVRQAPGKGLEWVSGISASGGTTNYADSVKGRFTISRDNSKNTLYLQMSSLRAEDTAEYYCAKDRFLEWVEGFDPWGQGILVTVSP
VL: DIQMTQSPSSLSASVGDRVTITCRASQSIGRFLIWYQQKPGKAPKLLLYATSSLQSGVPARFTGSGSGTDFTLTIGSLQPEDFATYYCQQSYITPLTFGGGTKVEIK
As to B6, the EC50, pseudovirus neutralization in test [2] was 0.1 pM; in test [1], 9.4 pM.

B7: 14F5 (antibody, V domains shown)
VH: EVQLLESGGGLVQPGGSLRLSCAVSGFTFSSFAMSWVRQAPGKGLEWVSGISASGGTTNYADSVKGRFTISRDNSKNTLYLQMSSLRAEDTAEYYCAKDRFLEWVEGFDPWGQGILVTVSP
VL: DIQMTQSPSSLSASVGDRVTITCRASQSIGRFLIWYQQKPGKAPKLLLYATSSLQSGVPARFTGSGSGTDFTLTIGSLQPEDFATYYCQQSYITPLTFGGGTKVEIK
In test [1], B7 showed an EC50, pseudovirus neutralization of 10.1 pM.

B8: 7A4 (antibody, V domains shown)
VH: QVQLVESGGDLVKPGGSLRLSCVASGFTFSDYYMNWIRLPPGKGLEWISYIDSSAGAIYYADSVKGRFTVSRDDAKNSLFLHMNSLRADDTAVYYCVRERRDGHKIFDYWGPGTLVTVSS
VL: DIVMTQSPDSLAVSLGERATINCKSSQNILYSSNNKNYLAWYQQKAGQPPKLLIFWSSIRESGVPDRFSGSGSGTDFTLTISSLQAEDVAVYYCQQYYSSPYNFGRGTTLEIK
As to B8, in test [1], the EC50, pseudovirus neutralization stood at 9.1 pM.

B9: 2F7 (antibody, V domains shown)
VH: QVQLVESGGGLVKPGGSLRLSCVASGFTFSDYYMNWIRLPPGRGLQWISYIDSSAGAIYYADSVKGRFTVSRDDAKNSLYLQMNSLRADDTAVYYCARERRDGHKIFDWWGQGTLVTVSS
VL: DIVMTQSPDSLAVSLGERATINCKSSQNILYTSNNKNYLGWYQQKAGQPPKLLIYWSSTRNSGVPDRFSGSGSGTDFTLTISSLQAEDVAVYYCHQYYSSPYTFGQGTNLEIK
B9 had an EC50, pseudovirus neutralization in test [1] of 52.5 pM.

B10: 4F7 (antibody, V domains shown)
VH: QVQLVESGGDLVKPGGSLRLSCVASGFTFSDYYMNWIRLPPGKGLEWISYIDSSAGAIYYADSVKGRFTVSRDDAKNSLFLHMNNLRADDTAVYYCARERRDGHKIFDCWGPGTLVTVSS
VL: DIVMTQSPDSLAVSLGERATINCKSSQNILYSSNNKNYLAWYQQKAGQPPKLLIFWSSTRESGVPDRFSGSGSGTDFTLTISSLQAEDVAVYYCQQYYSSPYNFGRGTTLEIK
Molecule B10 showed an EC50, pseudovirus neutralization in test [1] of 32.5 pM.

B11: 8A11 (antibody, V domains shown)
VH: QVQLVESGGDLVKPGGSLRLSCVASGFTFSDYYMNWIRLPPGKGLEWISYIDSSAGATYYADSVKGRFTVSRDDAKNSLFLHMNSLRAEDTAVYYCARERRSGHKIFDCWGPGTLVTVSS
VL: DIVMTQSPDSLAVSLGERATINCKSSQNILYSSNNKNYLAWYQQKAGQPPKLLIFWSSTRESGVPDRFSGSGSGTDFTLTISSLQAEDVAVYYCQQYYSSPYNFGRGTTLEIK
The molecule B11 gave an EC50, pseudovirus neutralization in test [1] of 108 pM.

B12: 1H10 (antibody, V domains shown)
VH: QVHLVESGGDLVKPGGSLRLSCVASGFTFSDYYMNWIRMPPGKGLEWISYIDSSAGAIYYADSVKGRFTVSRDDAKNSLFLHMNNLRADDTAVYYCARERRDGHKIFDCWGPGTLVTVSS
VL: DIVMTQSPDSLAVSLGERATINCKSSQNILYSSNNKNYLAWYQQKAGQPPKLLIFWSSTRESGVPDRFSGSGSGTDFTLTISSLQAEDVAVYYCQQYYSSPYNFGRGTTLEIK
Take B12: in test [1], the EC50, pseudovirus neutralization is 68.4 pM.

B13: 8D10 (antibody, V domains shown)
VH: QVHLVESGGDLVKPGGSLRLSCVASGFTFSDYYMNWIRLPPGKGLEWISYIDSSAGAIYYADSVKGRFTVSRDDAKNSMFLHMNSLRADDTAVYYCARERRDGHKIFDYWGPGTLVTVSS
VL: DIVMTQSPDSLAVSLGERATINCKSSQNILYSSNNKNYLAWYQQKAGQPPKLLIFWSSTRESGVPDRFSGSGSGTDFTLTISSLQAEDVAVYYCQQYYSSPYNFGRGTTLEIK
As for B13, in test [1], the EC50, pseudovirus neutralization turned out to be 62.9 pM.

B14: 2H1 (antibody, V domains shown)
VH: QVQLVESGGDLVKPGGSLRLSCVASGFTFSDYYMNWIRLPPGKGLEWISYIDSSAGAIYYADSVKGRFTVSRDDAKNSLFLHMNSLRADDTAVYYCARERRDGHKIFDCWGPGTLVTVSS
VL: DIVMTQSPDSLAVSLGERATINCKSSQNILYSSNNKNYLAWYQQKTGQPPKLLIFWSSTRESGVPDRFSGSGSGTDFTLTISSLQAEDVAVYYCQQYYSSPYNFGRGTTLEIK
As to B14, in test [1], the EC50, pseudovirus neutralization was 20.2 pM and 41.8 pM.

B15: 1E2 (antibody, V domains shown)
VH: QVQLVESGGDLVKPGGSLRLSCVASGFTFSDYYMNWIRLPPGKGLEWVSYIDSSAGAIYYADSVRGRFTVSRDDAKNSLFLHMNSLRADDTAVYYCARERRDGHKIFDCWGPGTLVTVSS
VL: DIVMTQSPDSLAVSLGERATINCKSSQNILYSSNNKNYLAWYQQKAGQPPKLLIFWSSTRESGVPDRFSGSGSGTDFTLTINSLQAEDVAVYYCQQYYSSPYNFGRGTTLEIK
On to B15, for which the EC50, pseudovirus neutralization in test [1] is 59 pM.

B16: 9B4 (antibody, V domains shown)
VH: QVQLVESGGDLVKPGGSLRLSCVASGFTFSDYYMNWIRLPPGKGLEWISYIDSSAGAIYYADSVKGRFTVSRDDAKNSLFLHMNSLRADDTAVYYCARERREGHKIFDFWGPGTLVTVSS
VL: DIVMTQSPDSLALSLGERATINCKSSQNILYSSNNKNYLACYQQKAGQPPKLLIFWSSTRESGVPDRFSGSGSGTDFTLTISSLQAEDVAVYYCQQYYSSPYNFGRGTTLEIK
B16: the EC50, pseudovirus neutralization in test [1] came out at 72.5 pM.

B17: 5A8 (antibody, V domains shown)
VH: QVQLVESGGDLVKPGGSLRLSCVASGFTFSDYYMNWIRLPPGRGLEWISYIDSSAGAIYYADSVKGRFTVSRDDAKKSLFLYMNSLRADDTAVYYCARERRDGHKIFDYWGPGTLVTVSS
VL: DIVMTQSPDSLAVSLGERATINCKSSQNILYSSNNKNYLAWYQQKAGQPPKLLIFWSSTRESGVPDRFSGSGSGTDFTLTISSLQAEDVAVYYCHQYYSSPYNFGRGTTLEIK
Molecule B17 came in with an EC50, pseudovirus neutralization in test [1] of 20.1 pM.
